Experimental findings from IntAct's records for PubMed 11729193 are described below.

B1: Cell death abnormality protein 1 (Caenorhabditis elegans), Q9XWD6 (parent)
chain: MRLILLVLLATWQVVVDTRAPTFPDKLTQQLQQQGTTEPQGDHVCTVKTIVDDYELKKVIHTVVYNDTEQCLNPLTGFQCTVEKRGQKASYQRQLVKKEKYVKQCCDGYYQTKDHFCLPDCNPPCKKGKCIEPGKCECDPGYGGKYCASSCSVGTWGLGCSKSCDCENGANCDPELGTCICTSGFQGERCEKPCPDNKWGPNCVKSCPCQNGGKCNKEGKCVCSDGWGGEFCLNKCEEGKFGAECKFECNCQNGATCDNTNGKCICKSGYHGALCENECSVGFFGSGCTQKCDCLNNQNCDSSSGECKCIGWTGKHCDIGCSRGRFGLQCKQNCTCPGLEFSDSNASCDAKTGQCQCESGYKGPKCDERKCDAEQYGADCSKTCTCVRENTLMCAPNTGFCRCKPGFYGDNCELACSKDSYGPNCEKQAMCDWNHASECNPETGSCVCKPGRTGKNCSEPCPLDFYGPNCAHQCQCNQRGVGCDGADGKCQCDRGWTGHRCEHHCPADTFGANCEKRCKCPKGIGCDPITGECTCPAGLQGANCDIGCPEGSYGPGCKLHCKCVNGKCDKETGECTCQPGFFGSDCSTTCSKGKYGESCELSCPCSDASCSKQTGKCLCPLGTKGVSCDQKCDPNTFGFLCQETVTPSPCASTDPKNGVCLSCPPGSSGIHCEHNCPAGSYGDGCQQVCSCADGHGCDPTTGECICEPGYHGKTCSEKCPDGKYGYGCALDCPKCASGSTCDHINGLCICPAGLEGALCTRPCSAGFWGNGCRQVCRCTSEYKQCNAQTGECSCPAGFQGDRCDKPCEDGYYGPDCIKKCKCQGTATSSCNRVSGACHCHPGFTGEFCHALCPESTFGLKCSKECPKDGCGDGYECDAAIGCCHVDQMSCGKAKQEFEALNGAGRSTGLTWFFVLLIVALCGGLGLIALFYRNKYQKEKDPDMPTVSFHKAPNNDEGREFQNPLYSRQSVFPDSDAFSSENNGNHQGGPPNGLLTLEEEELENKKIHGRSAAGRGNNDYASLDEVAGEGSSSSASASASRRGLNSSEQSRRPLLEEHDEEEFDEPHENSISPAHAVTTSNHNENPYADISSPDPVTQNSANKKRAQDNLYT
partner: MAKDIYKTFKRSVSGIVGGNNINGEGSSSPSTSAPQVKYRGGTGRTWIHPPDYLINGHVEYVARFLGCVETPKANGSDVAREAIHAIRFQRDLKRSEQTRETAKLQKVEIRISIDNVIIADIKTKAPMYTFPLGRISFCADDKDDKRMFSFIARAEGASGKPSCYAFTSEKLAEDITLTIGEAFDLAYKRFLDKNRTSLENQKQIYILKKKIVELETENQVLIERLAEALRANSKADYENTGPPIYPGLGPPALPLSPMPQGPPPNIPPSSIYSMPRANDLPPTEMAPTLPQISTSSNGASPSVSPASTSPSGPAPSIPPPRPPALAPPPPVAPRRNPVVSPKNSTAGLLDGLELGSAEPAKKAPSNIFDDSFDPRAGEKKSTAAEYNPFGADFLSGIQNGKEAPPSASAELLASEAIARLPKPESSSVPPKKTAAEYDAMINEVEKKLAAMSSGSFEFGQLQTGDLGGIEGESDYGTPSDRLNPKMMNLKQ
B2: Cell death abnormality protein 1 (Caenorhabditis elegans), Q9XWD6 (parent)
chain: B1 chain
partner: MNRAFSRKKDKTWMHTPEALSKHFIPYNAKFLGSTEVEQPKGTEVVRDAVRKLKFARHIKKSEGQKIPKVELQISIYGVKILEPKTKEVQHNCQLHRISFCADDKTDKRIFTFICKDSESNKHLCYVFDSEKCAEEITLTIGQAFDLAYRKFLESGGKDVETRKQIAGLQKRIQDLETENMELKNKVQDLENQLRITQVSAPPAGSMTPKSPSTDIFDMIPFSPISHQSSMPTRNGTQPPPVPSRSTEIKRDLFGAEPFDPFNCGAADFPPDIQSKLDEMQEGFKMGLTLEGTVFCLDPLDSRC

The variants in the first test derive from B1. Particulars: with ced6_caeel ced-6, O76337.
In the case of N962A, the “effect of a mutation on the interaction” value is “disrupting interaction strength”.

The variants in the next test derive from B2. The conditions noted are these: with gulp1_human GULP1, Q9UBP9.
For N962A, the “effect of a mutation on the interaction” value is recorded as “disrupting interaction strength”.
